Paper PMC11869522, “Competitive displacement of lipoprotein lipase from heparan sulfate is orchestrated by a disordered acidic cluster in GPIHBP1” (Journal of Lipid Research, 2025)

What was measured:
[1] = system: hLPL bound to immobilized heparan sulfate; test: GPIHBP1-mediated extraction of LPL from HSPGs (SPR, immobilized heparin dp4 fragments); assay type: binding, human
From the text: To mimic electrostatic conditions found in the sub-endothelial spaces where surface-bound heparan-sulfate proteoglycans (HSPGs) are abundant, we designed a surrogate sensor surface using a streptavidin-coated CM5 sensor chip to capture high densities of biotinylated synthetic heparin dp4 fragments ([28], [29]). The reference surface was loaded with a neutral and non-sulfated fragment (M09 S00 from Iduron), while the active surface was loaded with a negatively charged fragment (M09 S08a from Iduron) containing N- and O-6-linked sulfations on each of the […] glucosamine residues in the DP4 fragment. Only the highly sulfated oligosaccharide bound LPL, and those interactions were transient with high off-rates. Despite the very transient nature of this binding, we created a stable reservoir of hLPL on the sensor surface by combining the fast kinetics of polyelectrolyte interactions with severe mass transport limitation—the latter phenomenon impedes LPL escape from the surface due to the fast rebinding that is favored by the high densities of immobilized heparin fragments (300 fmol/mm^2). For each experiment, 12.5 nM hLPL was loaded for 100 s at a flow rate of 20 μl/min in 10 mM Hepes (pH 7.4), 150 mM NaCl, 4 mM CaCl2, 10% (vol/vol) glycerol, 0.05% (vol/vol) surfactant P20, 1 mg/ml defatted BSA, […], and 0.05% (wt/vol) NaN3.
To compare the ability of GPIHBP1^1–131 and its charge variants to bind and extract hLPL from this dynamic reservoir, we injected twofold serial dilutions of 1.25–200 nM GPIHBP1^1–131; 1.25–200 nM GPIHBP1^Cluster1-neutral; GPIHBP1^Cluster2-neutral; 1.25–200 nM GPIHBP1^34–131; 0.1–1.6 μM GPIHBP1^1–33 with Tyr^18–SO4; or 1.25–200 nM GPIHBP1^34–131 in the presence of 1 μM sulfated GPIHBP1^1–33 for 250 s at 20 μl/min in 10 mM Hepes (pH 7.4), 150 mM NaCl, 4 mM CaCl2, 10% (vol/vol) glycerol, 0.05% (vol/vol) surfactant P20, 0.2 mg/ml fatty acid-free BSA, and 0.05% (wt/vol) NaN3. At the end of each cycle, two consecutive injections of 10 μl 3 M guanidinium chloride regenerated the chip.
GPIHBP1’s ability to displace LPL from its HSPG-bound state in the sub-endothelial spaces is essential for the trans-endothelial trafficking of LPL to the luminal surface of capillary cells ([29]). The importance of the acidic tail in this process is supported by solid evidence from surrogate in vitro models and in vivo studies in gene-edited mice ([28], [29]). It was therefore important to determine the relative impact of the two charge-clusters in GPIHBP1 on their ability to disrupt LPL•HSPG interactions. To gain this insight, we measured the ability of different GPIHBP1 charge variants to displace hLPL from a SPR sensor chip surface coupled with a high density of immobilized small heparin-like fragments ([28]). […]

[2] = system: human LPL; test: Native PAGE binding to human LPL; details: 4 µM LPL with 18 µM GPIHBP1, 30 min on ice; Coomassie staining
Method: (§1) Distinct impacts of disordered acidic clusters in GPIHBP1
(§2) To confirm interactions between puri fi ed human GPIHBP11–131, G P IH B P 1 Cluster1-neutral, or GPIHBP1 Cluster2-neutral with human, mouse, and bovine LPL, these protein pairs were incubated for 30 min on ice (4 µM LPL with 18 µM GPIHBP1) before they were analyzed by native PAGE. As th ese concentrations were well above t he K D of 0.2 nM for the wildtype LPL•GPIHBP1 interaction, LPL is saturated with GPIHBP1 in these experiments (1). […]
(§3) spect r a for the purified GPIHBP1 variants wer e r ecor ded at 25°C in Helman cuvettes (path- length of 1 mm) with a scan rate of 50 nm/ min c ove r i ng the range of 190- 250 nm, averaging three scans for each protein. Spectra for the pr ote i ns were compared after converting to molar ellipticity using the following equation, […] where, Mw is the molecular weight of the protein, c is the protein concentration in g/l, l is the pat h-length of the cuvette, Nr number of amino acid residues in the protein.
(§4) Figure S1 : Binding of GPIHBP1 charge mutants to LPL as assessed by Native PAGE. The electrophoretic mobility of GPIHBP1 variants alone or in presence of purified human LPL ( A), b ovine LPL (B), and murine LPL (C) was assessed by native PAGE followed by Coomassie blue staining. […]

[3] = system: bovine LPL; test: Native PAGE binding to bovine LPL; details: 4 µM LPL with 18 µM GPIHBP1, 30 min on ice; Coomassie staining
Method: as §1, §2, §3, §4

Molecule | competitive displacement of HSPG-bound hLPL (in words) ([1]; 12.5–200 nM GPIHBP1 proteins, 0.1–1.6 μM sulfated GPIHBP1^1–33, or GPIHBP1^34–131 with 1 μM sulfated GPIHBP1^1–33) | binding to hLPL as judged by native PAGE [2] | binding to bLPL as judged by native PAGE [3] | reduction in hLPL levels on the sensor surface after GPIHBP1 injections (ΔLPL, displaced LPL) ([1]; serial twofold dilutions 12.5–200 nM, 250 s at 20 μl/min, pH 7.4, mean ± SD, n = 3)
GPIHBP1^Cluster2-neutral: GPIHBP1 mutant with all Glu/Asp replaced by Gln/Asn at residues 19–30 (protein, Tyr18 sulfation absent; one bi-antennary N-linked glycosylation; left off: uPAR domain III, N-terminal, cleaved) QTQQEEEEEDEDHGPDDYNQQNQNQVQQQQTNRLPGGGSRVLLRCYTCKSLPRDERCNLTQNCSHGQTCTTLIAHGNTESGLLTTHSTWCTDSCQPITKTVEGTQVTMTCCQSSLCNVPPWQSSRVQDPTG | neither dislodged any LPL from the surface | bound | bound | 
GPIHBP1^Cluster1-neutral: GPIHBP1 mutant with all Glu/Asp replaced by Gln/Asn at residues 1–17 (protein, Tyr18 sulfation present in less than 40%; one bi-antennary N-linked glycosylation; left off: uPAR domain III, N-terminal, cleaved) QTQQQQQQQNQNHGPNNYDEEDEDEVEEEETNRLPGGGSRVLLRCYTCKSLPRDERCNLTQNCSHGQTCTTLIAHGNTESGLLTTHSTWCTDSCQPITKTVEGTQVTMTCCQSSLCNVPPWQSSRVQDPTG |  | bound | bound | 35%
